Results from PMC9909341, “TLQP-21 is a low potency partial C3aR activator on human primary macrophages” (Frontiers in Immunology, 2023).
pEC50: −log10 of the molar value. Each block holds one compound with its values, some of them ahead of it.

Assays:
BMDM (murine C3aR) = format: cell-based, mouse; conditions: wild-type C57BL/6J BMDMs, 90,000/well; 10 min stimulation at RT; AlphaLISA p-ERK1/2; n = 3 mice; C3a is recombinant mouse C3a; read-out: EC50 (pERK1/2), BMDM
Protocol: Mouse bone marrow-derived macrophages (BMDMs) were obtained and cultured as previously described ([20], [21]). All experiments using mice were approved by the University of Queensland animal ethics committee. Wild-type and C3aR^-/- mice on a C57BL/6J genetic background (n = 3) were sacrificed by cervical dislocation. The tibia was removed and sterilised. Upon removal of both epiphyses, bone marrow cells were harvested by flushing the central cavity with complete RPMI-1640 medium using a 10 ml syringe attached to a 25-gauge needle. Cells were then cultured in complete RPMI-1640 medium (containing 10 % FBS, 100 IU/ml penicillin, 100 μg/ml streptomycin) supplemented with 100 ng/ml recombinant human macrophage colony stimulating factor on 10 mm square dishes. Mature adherent macrophages for assays were harvested on day 6-7 by gentle scraping.
(§1) Ligand-induced ERK1/2 phosphorylation was assessed using the AlphaLISA Surefire Ultra p-ERK1/2 (Thr202/Tyr204) kit (PerkinElmer, Melbourne, Australia) following the manufacturer’s protocol as previously described ([18], [20], [22]). Briefly, CHO-K1, CHO-C3aR, CHO-C5aR1, HMDMs (50,000/well) or BMDMs (90,000/well) were seeded in tissue culture-treated 96-well plates (Corning, Corning, USA) for 24 h and serum-starved overnight. All ligand dilutions were prepared in serum-free medium (SFM) containing 0.1% BSA. For inhibition assays, cells were pre-treated with the following ligands (5 µM SB290157, or respective concentrations of hC3a, mC3a, hC5a, hTLQP-21, and mTLQP-21) or the solvent-only control for 30 min before agonist (hC3a, hTLQP-21 and mTLQP-21) addition. The concentration and identity of the ligands are described in detail in the figure legends. For stimulation, cells were treated with ligands at the indicated concentrations for 10 min at RT and then immediately lysed using AlphaLISA lysis buffer on a microplate shaker (450 rpm, 10 min). For the detection of phospho-ERK1/2 content, cell lysate (5 μL/well) was transferred to a 384-well ProxiPlate (PerkinElmer, Melbourne, Australia) and added to the donor and acceptor reaction mix (2.5 μL/well, respectively), followed by a 2-h incubation at RT in the dark. On a Tecan Spark 20M (Tecan, Männedorf, Switzerland), the plate was measured using standard AlphaLISA settings.
(§2) All experiments were conducted in triplicates and repeated on three separate occasions unless otherwise specified. Data was analysed using GraphPad software (Prism 9.1). Data from each individual repeat was normalised accordingly (as specified in the figure legends) before being combined and expressed as mean ± standard error of the mean (S.E.M.) unless otherwise described. For all dose-response studies, logarithmic concentration-response curves were plotted using combined data and analysed to determine the respective potency values. Statistical analysis was performed using two-way ANOVA with Dunnett’s post hoc analysis. Donor-matched comparisons were made for HMDM experiments. Differences were deemed significant when p < 0.05.
Figure 4 TLQP-21 triggers ERK signalling through C3aR in murine bone marrow-derive macrophages. BMDMs (90,000/well) from wildtype mice (A) or with C3aR knockout mice (B), were serum-starved overnight and then stimulated with respective ligands at the indicated concentrations for 10 min. The phospho-ERK1/2 content in the cell lysate was measured and normalised to the medium only-treated levels before being combined. Data represent mean ± S.E.M. of triplicate measurements using cells from 3 mice (n = 3).

[1] = test system: HMDM (endogenous human C3aR); format: cell-based; conditions: primary human macrophages, 50,000/well; 10 min stimulation at RT; AlphaLISA p-ERK1/2; n = 4 donors; read-out: EC50 (pERK1/2), HMDM
From the text: HMDMs were generated and cultured as previously described ([20]), with experiments approved by The University of Queensland Human Research Ethics Committee. Briefly, human buffy coat blood from anonymous healthy donors was obtained through the Australian Red Cross Blood Service (Brisbane, Australia). Human CD14+ monocytes were isolated from blood using Lymphoprep density centrifugation (STEMCELL, Melbourne, Australia) followed by CD14+ MACS magnetic bead separation (Miltenyi Biotec, Sydney, Australia). The isolated monocytes were differentiated for 7 days in Iscove’s Modified Dulbecco’s Medium supplemented with 10% FBS, 100 IU/ml penicillin, 100 μg/ml streptomycin and 15 ng/ml recombinant human macrophage colony stimulating factor (BioLegend, San Diego, USA) on 10 mm square dishes (Bio-strategy, Brisbane, Australia). Non-adherent cells were removed by washing with DPBS, and the adherent differentiated HMDMs were harvested by gentle scraping.
as §1, §2
Figure 3 Agonistic and antagonistic activities of hTLQP-21 and mTLQP-21 in human monocyte-derived macrophages. Serum-starved HMDMs (50,000/well) were (A) stimulated with medium or respective ligands at the indicated concentrations for 10 min and then lysed, or (B) pre-treated with 5 µM SB290157 for 30 min prior to stimulation. (C) HMDMs were pre-treated with 10 μM hTLQP-21 or mTLQP-21 for 30 min before being stimulated with respective concentrations of human C3a. (D) HMDMs were pre-treated with 10 nM hC3a, 10 μM hTLQP-21 or mTLQP-21 for 30 min before being stimulated with the same concentrations of the above ligands for 10 min and then lysed. (E) HMDMs were pre-treated with 10 μM hTLQP-21 or mTLQP-21 for 30 min before being stimulated with respective concentrations of human C5a for 10 min and then lysed. […]

human C3aR = biological target: T1, human C3aR (Homo sapiens, UniProt Q16581); assay: phospho-ERK1/2 assay in CHO-C3aR cells; format: cell-based; conditions: efficacy relative to hC3a; fold baseline normalised; n = 3-4
T1 sequence (Q16581 1-482): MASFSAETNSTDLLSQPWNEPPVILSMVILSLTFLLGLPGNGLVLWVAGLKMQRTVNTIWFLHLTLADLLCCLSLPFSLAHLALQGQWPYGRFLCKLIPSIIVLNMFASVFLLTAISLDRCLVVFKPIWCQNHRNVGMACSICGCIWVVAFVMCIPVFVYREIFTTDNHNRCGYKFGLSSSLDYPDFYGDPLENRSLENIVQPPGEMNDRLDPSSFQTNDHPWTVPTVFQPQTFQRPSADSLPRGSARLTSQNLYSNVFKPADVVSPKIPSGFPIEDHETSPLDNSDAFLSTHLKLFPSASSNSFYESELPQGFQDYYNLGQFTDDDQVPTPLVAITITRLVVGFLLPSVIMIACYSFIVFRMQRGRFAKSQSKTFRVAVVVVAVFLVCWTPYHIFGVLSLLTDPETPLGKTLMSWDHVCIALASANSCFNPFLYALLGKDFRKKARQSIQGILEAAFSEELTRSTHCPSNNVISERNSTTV
Protocol: Cell lines for this study were cultured as previously described ([20]). Non-transfected CHO-K1 cells or CHO cells stably expressing the human C3aR (CHO-C3aR; Product # ES-730-C, PerkinElmer, Melbourne, Australia) were maintained in Ham’s F12 medium containing 10% foetal bovine serum (FBS), 100 IU/ml penicillin and 100 μg/ml streptomycin, with additional 400 μg/ml G418 (In vivoGen, San Diego, USA) added for CHO-C3aR cell culture. HEK293 cells were maintained in DMEM medium containing 10% FBS, 100 IU/ml penicillin and 100 μg/ml streptomycin. All cell lines were maintained in T175 flasks (37°C, 5% CO2) and subcultured at 80-90% confluency using 0.05% trypsin-EDTA in DPBS.
as §1, §2
Figure 1 hTLQP-2 and mTLQP-21 activate ERK signalling in CHO-K1 and CHO-C3aR cells. hTLQP-21, mTLQP-21 and plasma-derived human C3a were tested in (A) non-transfected CHO-K1 or (B) CHO cells stably expressing human C3aR. CHO cells were serum-starved overnight and then stimulated with various ligands for 10 min before being lysed. The phospho-ERK1/2 content in the lysate was measured and expressed as fold-baseline before being combined. The maximum relative pERK1/2 activity induced by each ligand is shown in (C). Data represent mean ± S.E.M. of triplicate measurements from 3-4 independent experiments (n = 3-4). Two-way ANOVA with Dunnett’s post hoc analysis. *P < 0.05, ***P < 0.001, ****P < 0.0001. Ligand treated versus medium treated cells for each cell line.

[2] = biological target: T2, Human complement C3a receptor, endogenous on human monocyte-derived macrophages (human (endogenous in HMDMs)) (UniProt Q16581)
T2 sequence: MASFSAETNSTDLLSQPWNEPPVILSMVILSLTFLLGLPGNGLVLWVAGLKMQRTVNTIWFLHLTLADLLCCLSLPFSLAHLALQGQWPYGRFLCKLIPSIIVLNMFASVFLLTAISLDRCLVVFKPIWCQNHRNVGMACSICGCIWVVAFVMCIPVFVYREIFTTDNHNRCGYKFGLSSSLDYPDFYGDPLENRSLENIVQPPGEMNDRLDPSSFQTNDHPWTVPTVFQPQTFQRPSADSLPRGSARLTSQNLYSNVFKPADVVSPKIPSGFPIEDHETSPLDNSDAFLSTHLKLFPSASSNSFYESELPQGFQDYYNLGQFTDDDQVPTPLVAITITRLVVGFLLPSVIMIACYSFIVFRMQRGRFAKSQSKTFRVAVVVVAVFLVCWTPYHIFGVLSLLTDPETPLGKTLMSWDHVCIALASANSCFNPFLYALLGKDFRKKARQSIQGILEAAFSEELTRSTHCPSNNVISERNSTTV

[3] = biological target: T3, Human complement C3a receptor, stably expressed on CHO cells (human) (UniProt Q16581)
T3 sequence: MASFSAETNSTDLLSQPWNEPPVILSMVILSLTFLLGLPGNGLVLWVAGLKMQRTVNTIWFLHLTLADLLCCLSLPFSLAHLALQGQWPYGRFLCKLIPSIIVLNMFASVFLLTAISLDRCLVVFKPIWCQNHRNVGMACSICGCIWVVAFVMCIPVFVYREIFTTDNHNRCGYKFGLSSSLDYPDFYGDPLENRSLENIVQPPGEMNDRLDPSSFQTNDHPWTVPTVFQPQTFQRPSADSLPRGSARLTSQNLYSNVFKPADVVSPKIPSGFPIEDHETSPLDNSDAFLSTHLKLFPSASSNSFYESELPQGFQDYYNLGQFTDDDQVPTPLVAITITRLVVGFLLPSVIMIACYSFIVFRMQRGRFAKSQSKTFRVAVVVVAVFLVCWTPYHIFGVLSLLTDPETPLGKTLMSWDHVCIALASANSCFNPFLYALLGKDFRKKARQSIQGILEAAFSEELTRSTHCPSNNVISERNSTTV

[4] = biological target: Endogenous C3aR of CHO-K1 cells (Chinese hamster (endogenous in CHO-K1))
[5] = biological target: T3, Human complement C3a receptor, stably expressed on CHO cells (human); remark: listed apart in the source
[6] = biological target: T2, Human complement C3a receptor, endogenous on human monocyte-derived macrophages (human (endogenous in HMDMs)); remark: listed apart in the source
[7] = biological target: T4, Murine complement C3a receptor, endogenous on mouse bone marrow-derived macrophages (mouse (endogenous in BMDMs)) (UniProt O09047)
T4 sequence: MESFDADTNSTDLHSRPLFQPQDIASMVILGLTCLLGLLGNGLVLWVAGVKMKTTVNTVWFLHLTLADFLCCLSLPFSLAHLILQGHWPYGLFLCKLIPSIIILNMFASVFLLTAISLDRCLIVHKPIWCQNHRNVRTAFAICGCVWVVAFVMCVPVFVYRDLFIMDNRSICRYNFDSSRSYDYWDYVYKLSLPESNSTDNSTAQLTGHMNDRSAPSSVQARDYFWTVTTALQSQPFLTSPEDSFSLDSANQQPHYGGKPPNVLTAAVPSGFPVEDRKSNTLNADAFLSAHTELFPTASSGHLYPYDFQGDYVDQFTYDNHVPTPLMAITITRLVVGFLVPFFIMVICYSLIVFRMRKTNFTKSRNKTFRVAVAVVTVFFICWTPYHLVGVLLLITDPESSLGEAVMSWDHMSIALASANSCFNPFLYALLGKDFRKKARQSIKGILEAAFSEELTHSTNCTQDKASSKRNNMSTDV

Compound: CC(C)C[C@H](NC(=O)[C@@H](N)[C@@H](C)O)C(=O)N[C@@H](CCC(N)=O)C(=O)N1CCC[C@H]1C(=O)N1CCC[C@H]1C(=O)N[C@@H](C)C(=O)N[C@@H](CO)C(=O)N[C@@H](CO)C(=O)N[C@@H](CCCNC(=N)N)C(=O)N[C@@H](CCCNC(=N)N)C(=O)N[C@@H](CCCNC(=N)N)C(=O)N[C@@H](Cc1c[nH]cn1)C(=O)N[C@@H](Cc1ccccc1)C(=O)N[C@@H](Cc1c[nH]cn1)C(=O)N[C@@H](Cc1c[nH]cn1)C(=O)N[C@@H](C)C(=O)N[C@@H](CC(C)C)C(=O)N1CCC[C@H]1C(=O)N1CCC[C@H]1C(=O)N[C@@H](C)C(=O)N[C@@H](CCCNC(=N)N)C(=O)O [mTLQP-21]
pEC50 (BMDM (murine C3aR)): 7.02 | pEC50 [1]: 5.55 | % C3a activity ± SE, CHO-C3aR (human C3aR): 91.8 ± 2.7%

C3a-induced ERK signalling in HMDMs pre-treated with the C3aR antagonist SB290157, % of the untreated level (% of the untreated level) [2]: < 20 | relative efficacy of C3a-induced ERK signalling in CHO-C3aR cells, fold baseline (fold baseline) [3]: 7.3 | relative efficacy of C3a-induced ERK signalling in CHO-K1 cells, fold baseline (fold baseline) [4]: 2.7 | EC50 (nM) of ERK1/2 phosphorylation in CHO-C3aR cells [5]: 0.15 nM | EC50 (nM) of ERK1/2 phosphorylation in HMDMs [6]: 0.11 nM
Compound: Human C3a (from UniProt P01024 672-748) (ligand)

EC50 (nM) of ERK1/2 phosphorylation in BMDMs [7]: 8.4 nM
Compound: Recombinant mouse C3a (from UniProt P01027 671-748) (ligand)
